The text below walks through data of patent EP4176934A1, “LIPIDIZED COCAINE- AND AMPHETAMINE-REGULATED TRANSCRIPT PEPTIDE ANALOGUES AS ANTI-OBESITY AND NEUROPROTECTIVE AGENTS” (Ustav organicke chemie a biochemie AV CR, v.v.i., priority 2021, dated 2023).

Data set [1] is described as follows: Stability in rat plasma measured by ELISA. The following applies: 100 ng.ml^-1, 37 °C, 96 hours, EDTA plasma, compared to CART 2S-S. Format: in vitro ADME. How it is done: Blank rat pooled EDTA plasma was conditioned in an incubator at 37 °C. Plasma was preheated to reach required temperature and then it was spiked with a solution of CART 2S-S and palm-CART analogues (dissolved in aqueous 0.5% formic acid) to a final concentration 100 ng.ml^-1. Duplicates were taken for ELISA analysis, sampling volume was 50 µL. Samples were immediately transferred to -20 °C.
ELISA kit for CARTp (MyBioSource, San Diego, CA, USA) was used in accordance with manufacturer's directions. In addition, external calibration using palm-CART was used. The rat plasma was applied for the calibration to comprise specific influence of different matrices on the immunoanalysis output.

Data set [2] concerns the target CARTp binding site in PC12 cells (prospective CARTp receptor) (rat). The experiment in a line: displacement of 125I-CART(61-102) from PC12 cells, relative to CART(61-102).
Data set [3] shares this target. The experiment in a line: displacement of 125I-CART(61-102) from PC12 cells; range told of the group, this end tied by Table 2. A general note: Loss of bound radioactivity is the signal in a displacement assay; it reports binding, not function.
For data set [4] the target is unchanged. The experiment in a line: displacement of 125I-CART(61-102) from PC12 cells, Cheng-Prusoff.
Data set [5] has the same target. The experiment in a line: radioligand binding on PC12 cells, 10^-10 M tracer.
For data set [6] the target is unchanged. The data set can be described thus: Kd of the radioligand on PC12 cells, used in the Cheng-Prusoff equation; how it was measured is not stated.

As a reminder, the Ki is a measure of affinity in units of concentration, obtained from inhibition or displacement. A high value points to lower affinity. The term Kd denotes the equilibrium constant for the complex coming apart.

Bridge positions count the residues as written; N and C are the ends. Square brackets hold non-standard residues; d marks the D form. Ends that are not written are not given here. * marks the point of attachment. Palmitoyl = CCCCCCCCCCCCCCCC(=O)*; Myristoyl = CCCCCCCCCCCCCC(=O)*; Nle = CCCC[C@H](N)C(=O)O; Octanoyl = CCCCCCCC(=O)*

Take “Palmitoyl-KYGQVP[Nle]ADAGEQCAVRKGARIGKLADCPRGTSCNSFLLKCL (disulfide 14-34, 28-41) [Palm-CART]”: the “stability in rat plasma” value in data set [1] was “higher stability”.

Palm-CART [74-94, 86-101] (peptide) yielded a % binding CART(61-102) in data set [2] of 0.85%. In addition, the results for the Ki in data set [3] and in data set [4] were 1000 nM and 1090 nM, respectively.

In data set [2], KYGQVPMCDAGEQCAVRKGARIGKLCDCPRGTSCNSFLLKCL (disulfide 14-34, 8-26, 28-41) [CART(61-102)] returned a % binding CART(61-102) of 100%. Besides, the Ki in data set [4] was determined as 9.33 nM.

B1: 125I-CART(61-102) (peptide)
peptide: KYGQVPMCDAGEQCAVRKGARIGKLCDCPRGTSCNSFLLKCL
modifications: disulfide 14-34, 8-26, 28-41; ends not checked; also: monoiodinated with 125I, residue not given here
For the molecule B1, in data set [5], the total binding, % of the radioactivity added was 3 to 8%. Besides, the Kd in data set [6] turned out to be 1.49 nM.

In turn, Palmitoyl-KYGQVP[Nle]ADAGEQCAVRKGARIGKLADCPRGTSCNSFLLKCL (disulfide 14-34, 28-41) [Palm-CART] displayed a % binding CART(61-102) in data set [2] of 652%. The inhibition constant Ki stood at 1 nM in data set [3] and 1.43 nM in data set [4].

As to Myristoyl-KYGQVP[Nle]ADAGEQCAVRKGARIGKLADCPRGTSCNSFLLKCL (disulfide 14-34, 28-41) [Myr-CART], in data set [2], the % binding CART(61-102) was 78%. This molecule returned a Ki in data set [4] of 12.1 nM.

KYGQVP[Nle]ADAGEQCAVRKGARIGKLADCPRGTSCNSFLLKCL (disulfide 14-34, 28-41) [CART 2S-S] registered a % binding CART(61-102) in data set [2] of 3.5%. In data set [4], the Ki worked out at 261 nM.

Take Octanoyl-KYGQVP[Nle]ADAGEQCAVRKGARIGKLADCPRGTSCNSFLLKCL (disulfide 14-34, 28-41) [Oct-CART]: the % binding CART(61-102) in data set [2] amounted to 12%. This molecule also had a Ki in data set [4] of 76.1 nM.
